Measured values from US20240010723A1 (IBEX BIOSCIENCES, published 2024).

T1: Murine CD147 (Uniprot P18572), recombinant protein (murine (mouse), UniProt P18572 22-325, limits assumed)
T1 construct: also called mCD147; mouse CD147
T1 sequence: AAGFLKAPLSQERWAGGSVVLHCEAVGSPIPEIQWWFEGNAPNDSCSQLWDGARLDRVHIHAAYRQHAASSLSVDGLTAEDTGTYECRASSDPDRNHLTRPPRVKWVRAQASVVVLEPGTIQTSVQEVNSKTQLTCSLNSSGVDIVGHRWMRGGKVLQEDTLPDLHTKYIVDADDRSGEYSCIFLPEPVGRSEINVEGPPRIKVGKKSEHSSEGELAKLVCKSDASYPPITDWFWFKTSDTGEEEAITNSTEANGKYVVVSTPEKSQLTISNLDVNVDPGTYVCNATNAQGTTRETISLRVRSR

T2: Human CD147 (Uniprot P35613), recombinant protein (human, UniProt P35613 138-325)
T2 construct: also called recombinant CD147; CD147 protein
T2 sequence: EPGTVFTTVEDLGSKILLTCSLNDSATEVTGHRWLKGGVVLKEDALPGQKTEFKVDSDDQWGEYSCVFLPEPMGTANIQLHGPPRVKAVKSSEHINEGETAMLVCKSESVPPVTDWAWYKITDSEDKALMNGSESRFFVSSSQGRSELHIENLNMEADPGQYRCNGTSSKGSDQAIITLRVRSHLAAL

T3: Human CD147 (Uniprot P35613), recombinant protein (UniProt P35613 138-325)
T3 chain: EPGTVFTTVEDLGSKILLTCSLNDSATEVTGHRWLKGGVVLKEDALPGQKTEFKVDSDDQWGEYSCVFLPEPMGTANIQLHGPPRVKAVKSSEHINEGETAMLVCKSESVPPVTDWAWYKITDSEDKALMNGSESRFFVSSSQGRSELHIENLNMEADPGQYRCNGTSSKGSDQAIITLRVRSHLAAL


Columns and labels:
[1] = target: T1, Murine CD147 (Uniprot P18572), …; assay: ELISA, 100 ng murine CD147 coated, anti-flag detection
Procedure: For the ELISA, 100 ng of murine CD147 was coated onto Nunc polysorb plates overnight in 1× coating buffer. The wells were washed once with TBST (0.01% tween 20) and then blocked for 1 hour using 1× fishgel in TBST at room temperature (RT). Ibx-11, Ibx-13, Ibx-75, Ibx-76, Ibx-77, and anti-HIS antibody was incubated at 0.01-100 ng/well in 100 μl for 1 hour at RT before being washed 3× for 5 min each wash. The wells were incubated with anti-human for Ibx-11 & Ibx-13 treated wells and with anti-flag for Ibx-77, Ibx-75, Ibx-76 treated wells at 1:1000 dilution for 1 hour RT, and then washed 3× for 5 min each wash. The wells were incubated with 100p/Well of TMBE for 30 minutes and the reaction was stopped with 100p/Well of 2N sulphuric acid. Optical Density (OD) was measured using Biotek synergy 4 instrument for quantification.

[2] = target: T2, Human CD147 (Uniprot P35613), …; assay: SPR, CD147 injected as analyte at 0-900 nM, kinetic model
Procedure: (§1) For this assay, CD147 was injected in HBS-EP buffer pH7.4 at concentrations ranging from 0 nM to 900 nM at 10 μl/min for 600 Seconds. Duplicate CD147 injections were carried out for 0, 9.22, […], 23.04, 57.6, 144, 360, 900 nM (a 2.5-fold dilution series). The chip surface was regenerated using 10 mM Glycine pH 2.0 @ 10 μl/min for 180 sec.
(§2) One technical replicate of 0 nm & 23.04 nM was excluded from analysis due to sudden air spikes and DIPs during analyte injection. Data were analyzed in Q-Dat software provided by instrument manufacturer. A steady state 1:1 fitting model (FIG. 4) was used for initial steady state binding analysis, and a simple Kd/Ka kinetic model (FIG. 5) was used to estimate KD.

[3] = target: T2, Human CD147 (Uniprot P35613), …; assay: SPR, CD147 injected as analyte at 0-900 nM, steady state 1:1 fit
Procedure: as §1, §2

[4] = target: T3, Human CD147 (Uniprot P35613), …; assay: SPR; kinetic model; Ibx-77 injected over immobilized CD147
[5] = target: T3, Human CD147 (Uniprot P35613), …; assay: SPR; steady state 1:1 fit; Ibx-77 injected over immobilized CD147
[6] = target: T3, Human CD147 (Uniprot P35613), …; assay: SPR
[7] = target: T2, Human CD147 (Uniprot P35613), …; assay: SPR sensorgram, partly purified sample injected on a sensor chip; the chip's ligand is not stated
Procedure: Approximately 45 μl of Ibx-74 and Ibx-75 at various stages of purification were provided; 35 μl of each sample was injected on a sensor chip and sensograms were collected. The flow rate was 10 μ/minute, and the chip was regenerated with 10 mM Glycine at pH 1.5.

Binder	binding result [1]	Kd [2]	koff [2]	kon [2]	Kd [3]	Kd [4]	Kd [5]	Kd [6]	koff [7]
Ibx-77 (dimer of Ibx-14) (VHH, not shown: small tags and cut ends, Tandem bivalent VhH without Fc) QVQLVESGGGLVQAGDSLTLSCAASGRSLSSNAMGWFRQAPGKEREFVSGTTWHAGTQYYAYAADSVKGRFTTSRDNANTVSLQMKRLKPEDTAVYYCAAAVSGPGYDSWGQGTQVTVSSEPKIPQPQPKPQPQPQPQPQPKPQPEPQVQLVESGGGLVQAGDSLTLSCAASGRSLSSNAMGWFRQAPGKEREFVSGTTWHAGTQYYAYAADSVKGRFTTSRDNANTVSLQMKRLKPEDTAVYYCAAAVSGPGYDSWGQGTQVTVSS	no binding (tested: 0.01-100 ng/well)	36.1 nM	0.000489 s⁻¹	13300 M⁻¹ s⁻¹	138 nM	0.335 nM	10.8 nM	–	–
Ibx-74 (dimer of Ibx-11) (VHH, Tandem bivalent VhH) QVRLEESGGGLVQAGGSLRLSCAASGLAFSIYGMGWFRQAPGKEREFVSVVDNTGSTTLYADSVKGRFTISRDNAKNTVYLQMSSLEPEDTAVYYCGAGPKNYLGSHEYAYWGQGTQVTVSSEPKIPQPQPKPQPQPQPQPQPKPQPEPQVRLEESGGGLVQAGGSLRLSCAASGLAFSIYGMGWFRQAPGKEREFVSVVDNTGSTTLYADSVKGRFTISRDNAKNTVYLQMSSLEPEDTAVYYCGAGPKNYLGSHEYAYWGQGTQVTVSS	–	–	–	–	–	–	–	0.0139 nM	3e-05 s⁻¹
Ibx-75 (dimer of Ibx-12) (VHH, Tandem bivalent VhH without Fc; also called tandem bivalent Ibx-75; not shown: Flag tag, since detection was with anti-flag) QVRLVESGGGLVQAGDSLRLSCQASGGTFTTYAMGWFRQAPGQEREFVSATTWSTGTSYYAYAADSVKGRFTTSRDNDNTVTLTMKRLKPDDTAVYYCSADPDGSDWAHSARQLRYWGQGTQVTVSSEPKIPQPQPKPQPQPQPQPQPKPQPEPQVRLVESGGGLVQAGDSLRLSCQASGGTFTTYAMGWFRQAPGQEREFVSATTWSTGTSYYAYAADSVKGRFTTSRDNDNTVTLTMKRLKPDDTAVYYCSADPDGSDWAHSARQLRYWGQGTQVTVSS	no binding (tested: 0.01-100 ng/well)	–	–	–	–	–	–	0.000428 nM	1e-06 s⁻¹
Ibx-76 (dimer of Ibx-13) (VHH, Tandem bivalent VhH without Fc; not shown: Flag tag, since detection was with anti-flag) QVQLVESGGGLVQPGGSLRLSCTASEDTFSTYAIGWFRQAPGQGREFVAGITANGIATRYNDSLKDRFTISRDNAKNTVYLQMNSLQPEDTAVYSCGADTRRFSLPSTVHEIDYWGQGTQVTVSSEPKIPQPQPKPQPQPQPQPQPKPQPEPQVQLVESGGGLVQPGGSLRLSCTASEDTFSTYAIGWFRQAPGQGREFVAGITANGIATRYNDSLKDRFTISRDNAKNTVYLQMNSLQPEDTAVYSCGADTRRFSLPSTVHEIDYWGQGTQVTVSS	no binding (tested: 0.01-100 ng/well)	–	–	–	–	–	–	–	–
